Target: T1, GST-CBP60g (Arabidopsis thaliana, UniProt F4K2R6 1-563)
T1 sequence: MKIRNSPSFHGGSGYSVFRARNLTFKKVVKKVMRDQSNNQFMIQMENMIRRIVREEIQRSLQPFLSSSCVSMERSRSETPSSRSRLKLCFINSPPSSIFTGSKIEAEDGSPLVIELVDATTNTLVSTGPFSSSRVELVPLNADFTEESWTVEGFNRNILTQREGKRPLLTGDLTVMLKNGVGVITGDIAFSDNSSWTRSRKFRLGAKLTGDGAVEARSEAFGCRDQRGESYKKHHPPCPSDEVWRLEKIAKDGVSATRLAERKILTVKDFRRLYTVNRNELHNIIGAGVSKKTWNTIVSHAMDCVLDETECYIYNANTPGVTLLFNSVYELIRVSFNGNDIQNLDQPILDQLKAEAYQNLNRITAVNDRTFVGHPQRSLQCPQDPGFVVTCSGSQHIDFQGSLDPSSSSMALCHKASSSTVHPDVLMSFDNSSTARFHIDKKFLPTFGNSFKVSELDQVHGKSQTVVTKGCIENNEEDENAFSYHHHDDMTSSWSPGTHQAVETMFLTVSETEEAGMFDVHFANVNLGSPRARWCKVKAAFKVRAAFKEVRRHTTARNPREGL
Experiment: EMSA; no effector; signal reduced by 150x unlabeled probe; 10 mM Tris-HCl pH 7.5, 50 mM KCl, 1 mM DTT, 50 ng poly[dI-dC], 20 ul, room temperature 30 min; 2 fmol probe, 4 ug GST-CBP60g; 5% native PAGE
Settings: protein: recombinant; tags: N-terminal GST (pGEX-6p-1); label: 32P (5' end, T4 PNK); blunt

B1: ICS1 promoter 60-bp probe (dsDNA)
DNA 1: TGTGTAATTTGGTGGTTATTTCATAGAAATTTTGGGGAAATTGTTGCACCTCTCCACTCT
DNA 2: AGAGTGGAGAGGTGCAACAATTTCCCCAAAATTTCTATGAAATAACCACCAAATTACACA
binding result: binds

Reference: publication PMC5993538, “The plant-specific transcription factors CBP60g and SARD1 are targeted by a Verticillium secretory protein VdSCP41 to modulate immunity”
